From article doi:10.1101/2019.12.20.884148

Molecular target: Galectin-3 (R&D Systems) (UniProt P17931)
Assay: SPR

Sequence of UniProt P17931 (P17931 whole entry): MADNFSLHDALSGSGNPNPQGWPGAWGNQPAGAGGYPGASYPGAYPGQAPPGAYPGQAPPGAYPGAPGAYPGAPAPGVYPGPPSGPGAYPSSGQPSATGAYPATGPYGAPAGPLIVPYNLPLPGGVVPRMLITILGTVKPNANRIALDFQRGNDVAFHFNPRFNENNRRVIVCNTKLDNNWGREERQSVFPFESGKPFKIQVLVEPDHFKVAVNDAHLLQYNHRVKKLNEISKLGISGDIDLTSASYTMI

Kd: 3.8 µM
Substance: Bovine lubricin (bPRG4) (natural protein)
